Data on one molecule can be found in US20100184658A1 (published 2010).

Targets include DAPK3 (ZIPK) (UniProt O43293 1-454, limits assumed); MELK (UniProt Q14680 1-340, limits assumed); GRK4 (UniProt P32298 1-578, limits assumed); ABL1 T315I (UniProt P00519 1-1130, limits assumed).
What all share (test): cell-based or functional assay
The target in experiment [1] is T1, SGK2 Serum/glucocorticoid regulated kinase 2 (UniProt Q9HBY8 1-367, limits assumed).
T1 sequence (looked up): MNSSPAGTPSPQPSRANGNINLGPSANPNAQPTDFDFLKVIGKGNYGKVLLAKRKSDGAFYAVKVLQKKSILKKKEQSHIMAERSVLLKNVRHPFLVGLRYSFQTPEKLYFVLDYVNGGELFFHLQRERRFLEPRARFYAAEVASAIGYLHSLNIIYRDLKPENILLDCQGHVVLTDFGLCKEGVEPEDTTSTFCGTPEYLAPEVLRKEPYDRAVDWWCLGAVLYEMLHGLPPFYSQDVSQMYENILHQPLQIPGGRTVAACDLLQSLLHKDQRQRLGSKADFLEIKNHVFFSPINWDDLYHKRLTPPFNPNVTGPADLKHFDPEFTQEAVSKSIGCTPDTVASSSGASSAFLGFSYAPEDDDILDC

The next experiment deals with T2, PRKCZ (PKC zeta) (human (printed as (h)), UniProt Q05513 1-592, limits assumed).
T2 sequence (looked up): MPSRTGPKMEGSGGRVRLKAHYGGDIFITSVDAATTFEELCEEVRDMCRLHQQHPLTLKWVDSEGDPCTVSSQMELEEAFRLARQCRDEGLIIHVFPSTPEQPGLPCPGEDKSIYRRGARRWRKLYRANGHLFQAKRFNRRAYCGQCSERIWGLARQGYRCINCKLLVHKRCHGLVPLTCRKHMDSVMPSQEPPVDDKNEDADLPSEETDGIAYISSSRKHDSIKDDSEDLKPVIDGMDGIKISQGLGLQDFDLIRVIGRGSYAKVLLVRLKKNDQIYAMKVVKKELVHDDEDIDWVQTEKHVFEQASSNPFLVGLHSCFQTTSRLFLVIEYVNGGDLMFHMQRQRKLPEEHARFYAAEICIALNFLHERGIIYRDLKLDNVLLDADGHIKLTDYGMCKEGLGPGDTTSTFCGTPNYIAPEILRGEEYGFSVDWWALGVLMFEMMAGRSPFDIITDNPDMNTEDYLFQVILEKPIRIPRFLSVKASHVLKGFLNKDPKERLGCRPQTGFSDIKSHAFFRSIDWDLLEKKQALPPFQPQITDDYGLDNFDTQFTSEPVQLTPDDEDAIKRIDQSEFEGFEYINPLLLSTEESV

For experiment [2], the target named is T3, MAP4K2 (GCK) Mitogen-activated protein kinase kinase kinase kinase 2 (UniProt Q12851 1-820, limits assumed).
T3 sequence (looked up): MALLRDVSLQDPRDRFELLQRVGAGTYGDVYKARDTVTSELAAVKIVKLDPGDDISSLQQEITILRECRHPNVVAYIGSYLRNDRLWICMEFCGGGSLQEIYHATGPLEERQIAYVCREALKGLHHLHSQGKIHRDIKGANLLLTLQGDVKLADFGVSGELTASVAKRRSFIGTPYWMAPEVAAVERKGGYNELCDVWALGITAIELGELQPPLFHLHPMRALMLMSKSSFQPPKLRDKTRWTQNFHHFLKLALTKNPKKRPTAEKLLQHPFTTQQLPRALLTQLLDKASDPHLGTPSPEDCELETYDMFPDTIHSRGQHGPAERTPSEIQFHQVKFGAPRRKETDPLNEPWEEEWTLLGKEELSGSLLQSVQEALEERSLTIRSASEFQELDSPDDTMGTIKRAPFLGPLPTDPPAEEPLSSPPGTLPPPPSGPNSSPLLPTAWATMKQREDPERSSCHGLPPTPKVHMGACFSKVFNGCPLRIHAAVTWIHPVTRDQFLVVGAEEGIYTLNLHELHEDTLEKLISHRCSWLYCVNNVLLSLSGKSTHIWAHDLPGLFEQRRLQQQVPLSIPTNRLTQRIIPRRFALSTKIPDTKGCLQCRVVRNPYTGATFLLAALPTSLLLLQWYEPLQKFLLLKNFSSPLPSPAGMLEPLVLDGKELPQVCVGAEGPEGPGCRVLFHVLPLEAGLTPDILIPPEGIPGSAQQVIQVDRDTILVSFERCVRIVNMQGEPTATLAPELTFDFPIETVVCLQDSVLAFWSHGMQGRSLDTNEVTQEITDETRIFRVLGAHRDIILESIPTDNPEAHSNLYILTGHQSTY

Experiment [3] addresses BRAF V-raf murine sarcoma viral oncogene homolog B1 (UniProt P15056 416-766, limits assumed).
Another experiment concerns the target T4, MATK (HYL) (UniProt P42679 1-507, limits assumed).
T4 sequence (looked up): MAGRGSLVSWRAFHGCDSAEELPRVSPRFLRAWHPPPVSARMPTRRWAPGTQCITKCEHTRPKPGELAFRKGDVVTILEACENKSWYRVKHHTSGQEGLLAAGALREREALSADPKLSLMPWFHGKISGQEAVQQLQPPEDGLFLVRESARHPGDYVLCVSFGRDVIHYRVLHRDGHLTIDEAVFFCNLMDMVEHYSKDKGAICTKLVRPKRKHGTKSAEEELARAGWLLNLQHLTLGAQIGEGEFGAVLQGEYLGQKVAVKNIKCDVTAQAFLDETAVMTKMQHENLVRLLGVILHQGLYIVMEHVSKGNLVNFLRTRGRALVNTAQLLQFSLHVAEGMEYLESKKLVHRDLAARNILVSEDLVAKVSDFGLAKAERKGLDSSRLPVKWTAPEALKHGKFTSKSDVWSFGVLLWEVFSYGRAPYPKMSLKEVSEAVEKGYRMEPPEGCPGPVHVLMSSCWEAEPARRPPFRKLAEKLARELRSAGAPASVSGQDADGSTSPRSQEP
Also: test concentration or dose not given here.

Chain of BRAF V-raf murine sarcoma viral oncogene homolog B1 (P15056 416-766 limits assumed): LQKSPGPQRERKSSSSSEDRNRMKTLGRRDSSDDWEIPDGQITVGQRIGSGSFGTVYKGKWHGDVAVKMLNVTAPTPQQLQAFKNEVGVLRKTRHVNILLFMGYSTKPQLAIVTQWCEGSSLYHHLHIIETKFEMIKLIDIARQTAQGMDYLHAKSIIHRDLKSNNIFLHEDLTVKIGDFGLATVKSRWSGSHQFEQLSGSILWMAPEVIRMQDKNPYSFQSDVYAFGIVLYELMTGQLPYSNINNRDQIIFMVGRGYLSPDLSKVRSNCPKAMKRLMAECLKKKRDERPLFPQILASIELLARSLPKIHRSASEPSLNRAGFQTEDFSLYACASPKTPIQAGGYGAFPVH
Chain of MELK (Q14680 1-340 limits assumed): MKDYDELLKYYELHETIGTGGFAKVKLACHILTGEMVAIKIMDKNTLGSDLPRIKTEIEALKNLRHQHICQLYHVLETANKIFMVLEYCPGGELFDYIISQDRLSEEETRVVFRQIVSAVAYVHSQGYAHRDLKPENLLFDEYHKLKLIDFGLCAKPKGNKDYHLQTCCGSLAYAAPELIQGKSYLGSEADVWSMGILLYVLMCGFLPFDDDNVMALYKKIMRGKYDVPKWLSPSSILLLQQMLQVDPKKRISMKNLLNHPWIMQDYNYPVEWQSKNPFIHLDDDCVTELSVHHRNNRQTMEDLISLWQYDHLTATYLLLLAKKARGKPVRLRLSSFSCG
Chain of GRK4 (P32298 whole entry): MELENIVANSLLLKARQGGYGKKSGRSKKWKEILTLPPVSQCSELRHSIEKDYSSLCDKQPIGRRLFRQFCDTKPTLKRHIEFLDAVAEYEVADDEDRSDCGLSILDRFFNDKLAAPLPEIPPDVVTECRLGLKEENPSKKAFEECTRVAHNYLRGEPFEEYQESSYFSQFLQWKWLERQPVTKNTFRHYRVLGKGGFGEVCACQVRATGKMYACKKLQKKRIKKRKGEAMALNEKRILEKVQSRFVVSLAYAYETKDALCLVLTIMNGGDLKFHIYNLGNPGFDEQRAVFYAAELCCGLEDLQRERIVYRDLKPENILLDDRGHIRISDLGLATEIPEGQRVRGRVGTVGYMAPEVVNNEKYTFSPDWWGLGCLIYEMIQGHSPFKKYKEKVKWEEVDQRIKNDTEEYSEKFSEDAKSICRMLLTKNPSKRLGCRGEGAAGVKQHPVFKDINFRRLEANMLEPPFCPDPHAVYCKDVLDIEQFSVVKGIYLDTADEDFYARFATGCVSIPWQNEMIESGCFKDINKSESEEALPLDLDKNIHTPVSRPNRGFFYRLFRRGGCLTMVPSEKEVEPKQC
Chain of ABL1 T315I (P00519 whole entry T315I): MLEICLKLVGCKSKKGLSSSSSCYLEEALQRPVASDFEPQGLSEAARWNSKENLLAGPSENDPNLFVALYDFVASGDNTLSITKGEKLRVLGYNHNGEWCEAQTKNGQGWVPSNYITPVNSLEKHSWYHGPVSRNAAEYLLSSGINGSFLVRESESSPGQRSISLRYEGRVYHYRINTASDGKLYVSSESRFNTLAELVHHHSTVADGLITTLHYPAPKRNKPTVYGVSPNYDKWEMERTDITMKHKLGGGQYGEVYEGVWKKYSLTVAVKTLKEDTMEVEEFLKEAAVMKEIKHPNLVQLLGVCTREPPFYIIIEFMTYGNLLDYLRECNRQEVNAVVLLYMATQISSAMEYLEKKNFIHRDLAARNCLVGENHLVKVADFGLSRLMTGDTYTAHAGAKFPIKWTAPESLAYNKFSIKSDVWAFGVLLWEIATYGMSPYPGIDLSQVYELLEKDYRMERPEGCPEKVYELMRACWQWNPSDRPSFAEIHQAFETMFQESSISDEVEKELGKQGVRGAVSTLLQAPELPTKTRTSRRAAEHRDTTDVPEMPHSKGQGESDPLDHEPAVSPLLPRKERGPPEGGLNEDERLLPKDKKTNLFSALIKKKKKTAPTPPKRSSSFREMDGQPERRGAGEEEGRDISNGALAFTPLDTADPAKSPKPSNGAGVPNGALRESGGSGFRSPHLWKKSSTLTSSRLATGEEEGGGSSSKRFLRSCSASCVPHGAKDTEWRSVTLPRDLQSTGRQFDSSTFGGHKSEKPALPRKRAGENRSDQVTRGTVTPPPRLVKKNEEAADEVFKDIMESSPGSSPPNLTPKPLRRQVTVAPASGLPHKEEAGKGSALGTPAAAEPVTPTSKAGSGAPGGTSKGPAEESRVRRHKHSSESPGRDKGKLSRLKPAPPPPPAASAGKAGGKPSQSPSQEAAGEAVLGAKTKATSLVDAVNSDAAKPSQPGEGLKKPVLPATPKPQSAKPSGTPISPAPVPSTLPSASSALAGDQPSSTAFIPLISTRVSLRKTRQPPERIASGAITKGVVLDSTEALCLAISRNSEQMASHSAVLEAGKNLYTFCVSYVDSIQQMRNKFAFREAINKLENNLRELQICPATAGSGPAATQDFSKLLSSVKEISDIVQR
Chain of DAPK3 (ZIPK) (O43293 whole entry): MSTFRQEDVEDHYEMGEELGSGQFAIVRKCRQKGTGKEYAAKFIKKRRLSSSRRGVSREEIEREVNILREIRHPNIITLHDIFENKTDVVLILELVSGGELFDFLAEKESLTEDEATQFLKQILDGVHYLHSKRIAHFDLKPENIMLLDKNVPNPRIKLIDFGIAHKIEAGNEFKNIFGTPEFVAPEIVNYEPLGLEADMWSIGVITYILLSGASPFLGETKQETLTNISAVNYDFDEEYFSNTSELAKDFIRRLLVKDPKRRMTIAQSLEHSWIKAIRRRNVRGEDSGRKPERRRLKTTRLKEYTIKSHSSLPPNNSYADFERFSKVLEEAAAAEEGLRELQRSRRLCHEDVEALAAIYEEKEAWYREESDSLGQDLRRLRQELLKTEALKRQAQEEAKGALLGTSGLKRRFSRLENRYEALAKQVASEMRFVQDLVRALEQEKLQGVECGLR

In the case of SGRPPMIVWFNRPFLIAVSHTHGQTILFMAKVINPVGA [D3 peptide], the “% Inhibition mean” value in the experiment with DAPK3 (ZIPK) worked out at 62%; with MELK it was 85.8%; in experiment [1] it was 102%; in the experiment with GRK4 it was 58.6%; with PRKCZ (PKC zeta), 74.4%; in experiment [2], 98.4%. In addition, the results for the “% Inhibition mean” value (in experiment [3]; with ABL1 T315I; with MATK (HYL)) were 100%, 69.8% and 55.6%, respectively.
